Test results from patent US20240352100A1 (AJOU UNIVERSITY INDUSTRY ACADEMIC COOPERATION FOUNDATION, published 2024).
Substitutions are numbered along the chain they refer to.

Assays:
[1] = biological target: β-catenin (endogenous, in colon cancer cell lines) (human) (UniProt P35222); assay: cell-based or functional assay
[2] = biological target: T1, His8-Avi-tag-β-catenin (recombinant, biotinylated, from E. coli) (human, UniProt P35222 1-781, limits assumed, biotinylated (Avi-tag, co-expressed with pBirAcm in the presence of D-Biotin)); assay: BLI (Octet QKe), antibody captured on AHC sensor, β-catenin 200-12.5 nM, 1:1 model
T1 construct: also called purified β-catenin; recombinant antigen protein β-catenin; not shown: His8-Avi tag
T1 sequence (looked up): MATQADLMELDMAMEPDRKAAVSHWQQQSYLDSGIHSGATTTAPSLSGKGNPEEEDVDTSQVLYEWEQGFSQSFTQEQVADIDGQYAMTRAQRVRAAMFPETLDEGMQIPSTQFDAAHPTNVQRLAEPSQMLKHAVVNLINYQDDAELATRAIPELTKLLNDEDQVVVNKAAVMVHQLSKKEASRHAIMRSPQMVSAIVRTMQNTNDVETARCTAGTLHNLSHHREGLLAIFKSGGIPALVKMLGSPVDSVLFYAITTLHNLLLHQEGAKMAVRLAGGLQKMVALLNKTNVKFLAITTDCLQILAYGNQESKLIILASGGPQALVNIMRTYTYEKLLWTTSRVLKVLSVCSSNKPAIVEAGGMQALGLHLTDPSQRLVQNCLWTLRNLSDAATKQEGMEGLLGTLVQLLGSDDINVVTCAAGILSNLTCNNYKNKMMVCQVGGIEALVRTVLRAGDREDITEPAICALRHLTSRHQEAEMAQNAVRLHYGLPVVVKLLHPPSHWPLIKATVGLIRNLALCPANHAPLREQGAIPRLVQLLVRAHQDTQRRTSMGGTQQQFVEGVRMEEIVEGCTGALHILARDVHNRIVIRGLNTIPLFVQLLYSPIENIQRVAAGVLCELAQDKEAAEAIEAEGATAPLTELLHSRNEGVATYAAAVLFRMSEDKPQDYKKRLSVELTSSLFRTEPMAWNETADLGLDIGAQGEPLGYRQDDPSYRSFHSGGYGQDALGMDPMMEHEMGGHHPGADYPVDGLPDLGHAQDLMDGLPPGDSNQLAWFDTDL

[3] = biological target: T1, His8-Avi-tag-β-catenin (recombinant, …); assay: BLI (Octet QKe): antibody captured on AHC sensor, β-catenin at 200, 100, 50, 25, 12.5 nM, 1:1 binding model

In the case of inBC2-(A6)-VHL152-213 (antibody), the β-catenin degradation activity (Western blot, HCT116, 2 µM, 12 h) [1] is reported as 25%.

With inBC2-(G5)-VHL152-213 (antibody) the β-catenin degradation activity (Western blot, HCT116, 2 µM, 12 h) [1] was 5%.

In the case of inBC2-(G10)-VHL152-213 (antibody), the β-catenin degradation activity (Western blot, HCT116, 2 µM, 12 h) [1] is reported as 8%.

inBC2-SOCS2153-198 (antibody) was tested, and the β-catenin degradation ability (Western blot, three colon cancer cell lines) [1] was 40% and the β-catenin degradation ability compared to inBC2-VHL152-213 (Western blot) (% higher than inBC2-VHL152-213) [1] was 20.

For inBC2-VHL152-213 (antibody), the decrease in the amount of β-catenin (Western blot, HCT116, with or without MLN4924 or Bortezomib) [1] was 30%, the β-catenin degradation activity (Western blot, DLD-1, 2 µM, 12 h) [1] was 15% and the β-catenin degradation activity (Western blot, HCT116, 2 µM, 12 h) [1] was 36%. The β-catenin degradation activity (Western blot, SW480, DLD-1, HCT116) [1] was 20% and the β-catenin degradation activity over time (Western blot, DLD-1, 2 µM) [1] was 25%.

B1: inBC0 (antibody, V domains shown)
VH: QVQLVESGGGVVQPGRSLRLSCAASGFTFSSYPMHWVRQAPGKGLEWVAVVSYDGSYKYYADSVKGRLTISRDNSKNTLYLQMNSLRAEDTAVYYCARATVRGVTKIRGVFDSWGRGALVTVSS
VL: DYQLTQSPSSLSASVGDRVTITCKSSQSLLNSRDGKNYLAWYQQKPGKAPKMLIYWASTRESGVPSRFSGSGSGTDFTLTISSLQPEDFATYFCQQYWYWMFTFGQGTKVEIKR
notes: Complete immunoglobulin made by putting the anti-β-catenin VH into inRas37; also called anti-β-catenin cytosol-penetrating interfering antibody inBC0
B1 gave a Kd [2] of 5.75 nM, a koff [3] of 0.000233 s⁻¹ and a kon [3] of 40500 M⁻¹ s⁻¹.

B2: inBC2 (antibody, V domains shown)
VH: B1 VH with R116Q, A118T
VL: B1 VL
notes: Complete immunoglobulin; FR4 back-mutated form of inBC0; also called anti-β-catenin cytosol-penetrating interfering antibody inBC2; anti-β-catenin iMab
Molecule B2 has a Kd [2] of 4.92 nM, a koff [3] of 0.000219 s⁻¹ and a kon [3] of 44600 M⁻¹ s⁻¹.
